Data from patent US20190322730A1 (NGM BIOPHARMACEUTICALS, published 2019).

Tests used:
[1] = molecular target: C3b (human, UniProt P01024 23-667; P01024 749-1663); experiment: binding screen of Example 5; method and unit not stated
[2] = molecular target: T1, human complement component C3 (human, UniProt P01024 23-667; P01024 672-1663); experiment: as above
T1 construct: also called human C3

[3] = molecular target: C3a (human, UniProt P01024 672-748); experiment: as above
[4] = molecular target: T2, C3d (UniProt P01024 1002-1303, limits assumed); experiment: as above
T2 construct: domain: C3d

[5] = molecular target: T1, human complement component C3; experiment: cell-based or functional assay
[6] = molecular target: T3, cynomolgus monkey complement component C3 (cynomolgus monkey, UniProt P01024 24-1663 (human entry)); experiment: cell-based or functional assay
[7] = molecular target: T4, Factor Bb (UniProt P00751 260-764); experiment: binding screen of Example 5; method and unit not stated
T4 construct: domain: Factor Bb

[8] = molecular target: T1, human complement component C3; experiment: SPR (Biacore)
Procedure: The binding affinities of exemplary anti-C3 antibodies to human C3 and cyno C3 were measured using a Biacore system (GE Healthcare LifeSciences). Briefly, anti-Fc antibody (Sigma-Aldrich) was immobilized on all four flow cells of a CM5 chip using amine coupling reagents (GE Healthcare LifeSciences). Antibodies were captured on flow cells 2, 3, and 4 using flow cell 1 as a reference. Concentrations ranging from 0.62-40 nM of human C3 or cyno C3 were injected at a flow rate of 50 μL/min at 37° C. Kinetic data were collected over time and fit using the simultaneous global fit equation to yield affinity constants (KD values) for each antibody.

[9] = molecular target: T1, human complement component C3; experiment: cell-based or functional assay; remark: listed apart in the source
[10] = molecular target: T3, cynomolgus monkey complement component …; experiment: cell-based or functional assay; remark: listed apart in the source
[11] = molecular target: T1, human complement component C3; experiment: cell-based or functional assay; remark: listed apart in the source

Chain of C3a (P01024 672-748 limits assumed): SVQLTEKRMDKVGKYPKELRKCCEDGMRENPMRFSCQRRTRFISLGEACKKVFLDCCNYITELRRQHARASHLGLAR
T1 sequence (P01024 23-667, chain 1 of 2): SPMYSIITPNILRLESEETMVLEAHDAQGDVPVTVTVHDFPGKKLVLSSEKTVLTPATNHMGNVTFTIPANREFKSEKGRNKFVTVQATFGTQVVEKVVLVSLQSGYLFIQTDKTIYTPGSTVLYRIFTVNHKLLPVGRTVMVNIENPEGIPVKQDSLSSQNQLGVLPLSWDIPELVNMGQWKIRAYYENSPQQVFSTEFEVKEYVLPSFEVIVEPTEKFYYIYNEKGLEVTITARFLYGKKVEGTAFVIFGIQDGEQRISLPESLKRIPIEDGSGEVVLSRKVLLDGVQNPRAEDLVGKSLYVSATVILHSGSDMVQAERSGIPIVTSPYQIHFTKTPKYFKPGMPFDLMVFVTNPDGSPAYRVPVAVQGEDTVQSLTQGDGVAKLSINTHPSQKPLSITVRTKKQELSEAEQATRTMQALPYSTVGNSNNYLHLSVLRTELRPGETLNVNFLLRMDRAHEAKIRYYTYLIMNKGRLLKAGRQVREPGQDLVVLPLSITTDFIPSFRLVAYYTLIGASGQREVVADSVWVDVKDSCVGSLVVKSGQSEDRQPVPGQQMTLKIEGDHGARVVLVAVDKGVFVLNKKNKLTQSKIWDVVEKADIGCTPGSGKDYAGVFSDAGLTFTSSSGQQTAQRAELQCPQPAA
T1 sequence (P01024 672-1663, chain 2 of 2): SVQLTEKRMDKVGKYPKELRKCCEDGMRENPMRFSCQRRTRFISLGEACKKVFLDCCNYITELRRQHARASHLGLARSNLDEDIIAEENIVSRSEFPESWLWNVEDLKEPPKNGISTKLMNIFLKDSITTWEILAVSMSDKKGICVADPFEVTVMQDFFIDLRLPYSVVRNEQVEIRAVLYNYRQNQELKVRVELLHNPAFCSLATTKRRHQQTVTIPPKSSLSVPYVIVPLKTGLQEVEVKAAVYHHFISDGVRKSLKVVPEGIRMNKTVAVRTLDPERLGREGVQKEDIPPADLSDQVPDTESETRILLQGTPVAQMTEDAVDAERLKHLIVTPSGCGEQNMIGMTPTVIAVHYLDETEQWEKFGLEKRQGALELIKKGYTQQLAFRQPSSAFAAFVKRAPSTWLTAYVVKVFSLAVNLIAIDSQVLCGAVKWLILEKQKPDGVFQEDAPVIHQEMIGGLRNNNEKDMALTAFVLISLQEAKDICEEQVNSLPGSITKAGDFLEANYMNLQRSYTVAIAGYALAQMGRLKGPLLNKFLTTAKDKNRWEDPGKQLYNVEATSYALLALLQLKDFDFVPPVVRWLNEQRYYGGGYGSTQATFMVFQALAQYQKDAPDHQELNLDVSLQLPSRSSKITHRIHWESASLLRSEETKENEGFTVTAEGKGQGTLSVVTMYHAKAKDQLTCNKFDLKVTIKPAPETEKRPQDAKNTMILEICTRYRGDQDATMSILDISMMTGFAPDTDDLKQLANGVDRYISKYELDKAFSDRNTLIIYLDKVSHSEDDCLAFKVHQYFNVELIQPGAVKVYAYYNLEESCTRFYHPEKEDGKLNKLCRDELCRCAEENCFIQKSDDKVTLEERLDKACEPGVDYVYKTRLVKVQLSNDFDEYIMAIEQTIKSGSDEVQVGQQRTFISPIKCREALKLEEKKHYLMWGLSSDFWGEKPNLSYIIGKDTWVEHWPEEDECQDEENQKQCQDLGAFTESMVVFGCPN
Chain of C3b (P01024 23-667 limits assumed, chain 1 of 2): as the sequence (P01024 23-667, chain 1 of 2) above
Chain of C3b (P01024 749-1663 limits assumed, chain 2 of 2): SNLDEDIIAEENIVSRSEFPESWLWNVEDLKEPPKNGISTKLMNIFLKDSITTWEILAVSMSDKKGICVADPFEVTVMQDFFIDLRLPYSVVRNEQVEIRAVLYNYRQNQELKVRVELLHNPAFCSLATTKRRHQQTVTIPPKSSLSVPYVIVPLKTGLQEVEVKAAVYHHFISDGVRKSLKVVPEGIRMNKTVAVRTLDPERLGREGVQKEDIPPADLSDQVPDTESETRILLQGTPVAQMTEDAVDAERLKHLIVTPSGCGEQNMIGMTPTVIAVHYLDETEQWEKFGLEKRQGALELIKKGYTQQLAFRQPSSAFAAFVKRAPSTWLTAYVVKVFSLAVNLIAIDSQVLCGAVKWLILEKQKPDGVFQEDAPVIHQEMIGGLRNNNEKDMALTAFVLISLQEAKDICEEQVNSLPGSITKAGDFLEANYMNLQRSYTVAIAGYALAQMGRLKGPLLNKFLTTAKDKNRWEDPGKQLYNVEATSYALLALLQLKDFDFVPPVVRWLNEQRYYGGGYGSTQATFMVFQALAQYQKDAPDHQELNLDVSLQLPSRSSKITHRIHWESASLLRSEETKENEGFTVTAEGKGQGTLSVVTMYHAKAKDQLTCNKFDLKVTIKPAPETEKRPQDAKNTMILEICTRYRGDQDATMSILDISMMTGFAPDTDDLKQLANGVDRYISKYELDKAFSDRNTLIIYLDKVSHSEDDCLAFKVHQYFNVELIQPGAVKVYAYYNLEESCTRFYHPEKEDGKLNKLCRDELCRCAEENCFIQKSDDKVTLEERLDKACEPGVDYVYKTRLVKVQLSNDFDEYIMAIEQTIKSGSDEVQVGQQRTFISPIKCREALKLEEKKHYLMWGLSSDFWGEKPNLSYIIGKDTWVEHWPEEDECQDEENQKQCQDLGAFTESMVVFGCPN
T2 sequence (P01024 1002-1303 limits assumed): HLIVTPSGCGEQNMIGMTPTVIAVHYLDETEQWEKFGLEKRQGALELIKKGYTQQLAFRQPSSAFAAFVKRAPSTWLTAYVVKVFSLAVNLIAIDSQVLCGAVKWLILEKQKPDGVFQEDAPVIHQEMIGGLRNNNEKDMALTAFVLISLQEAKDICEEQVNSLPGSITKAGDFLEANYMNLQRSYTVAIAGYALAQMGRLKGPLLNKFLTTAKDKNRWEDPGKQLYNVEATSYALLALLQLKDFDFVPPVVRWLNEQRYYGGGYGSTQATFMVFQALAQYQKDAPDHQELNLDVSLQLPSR
T3 sequence (P01024 other isoform, or with tags, fused parts or gaps): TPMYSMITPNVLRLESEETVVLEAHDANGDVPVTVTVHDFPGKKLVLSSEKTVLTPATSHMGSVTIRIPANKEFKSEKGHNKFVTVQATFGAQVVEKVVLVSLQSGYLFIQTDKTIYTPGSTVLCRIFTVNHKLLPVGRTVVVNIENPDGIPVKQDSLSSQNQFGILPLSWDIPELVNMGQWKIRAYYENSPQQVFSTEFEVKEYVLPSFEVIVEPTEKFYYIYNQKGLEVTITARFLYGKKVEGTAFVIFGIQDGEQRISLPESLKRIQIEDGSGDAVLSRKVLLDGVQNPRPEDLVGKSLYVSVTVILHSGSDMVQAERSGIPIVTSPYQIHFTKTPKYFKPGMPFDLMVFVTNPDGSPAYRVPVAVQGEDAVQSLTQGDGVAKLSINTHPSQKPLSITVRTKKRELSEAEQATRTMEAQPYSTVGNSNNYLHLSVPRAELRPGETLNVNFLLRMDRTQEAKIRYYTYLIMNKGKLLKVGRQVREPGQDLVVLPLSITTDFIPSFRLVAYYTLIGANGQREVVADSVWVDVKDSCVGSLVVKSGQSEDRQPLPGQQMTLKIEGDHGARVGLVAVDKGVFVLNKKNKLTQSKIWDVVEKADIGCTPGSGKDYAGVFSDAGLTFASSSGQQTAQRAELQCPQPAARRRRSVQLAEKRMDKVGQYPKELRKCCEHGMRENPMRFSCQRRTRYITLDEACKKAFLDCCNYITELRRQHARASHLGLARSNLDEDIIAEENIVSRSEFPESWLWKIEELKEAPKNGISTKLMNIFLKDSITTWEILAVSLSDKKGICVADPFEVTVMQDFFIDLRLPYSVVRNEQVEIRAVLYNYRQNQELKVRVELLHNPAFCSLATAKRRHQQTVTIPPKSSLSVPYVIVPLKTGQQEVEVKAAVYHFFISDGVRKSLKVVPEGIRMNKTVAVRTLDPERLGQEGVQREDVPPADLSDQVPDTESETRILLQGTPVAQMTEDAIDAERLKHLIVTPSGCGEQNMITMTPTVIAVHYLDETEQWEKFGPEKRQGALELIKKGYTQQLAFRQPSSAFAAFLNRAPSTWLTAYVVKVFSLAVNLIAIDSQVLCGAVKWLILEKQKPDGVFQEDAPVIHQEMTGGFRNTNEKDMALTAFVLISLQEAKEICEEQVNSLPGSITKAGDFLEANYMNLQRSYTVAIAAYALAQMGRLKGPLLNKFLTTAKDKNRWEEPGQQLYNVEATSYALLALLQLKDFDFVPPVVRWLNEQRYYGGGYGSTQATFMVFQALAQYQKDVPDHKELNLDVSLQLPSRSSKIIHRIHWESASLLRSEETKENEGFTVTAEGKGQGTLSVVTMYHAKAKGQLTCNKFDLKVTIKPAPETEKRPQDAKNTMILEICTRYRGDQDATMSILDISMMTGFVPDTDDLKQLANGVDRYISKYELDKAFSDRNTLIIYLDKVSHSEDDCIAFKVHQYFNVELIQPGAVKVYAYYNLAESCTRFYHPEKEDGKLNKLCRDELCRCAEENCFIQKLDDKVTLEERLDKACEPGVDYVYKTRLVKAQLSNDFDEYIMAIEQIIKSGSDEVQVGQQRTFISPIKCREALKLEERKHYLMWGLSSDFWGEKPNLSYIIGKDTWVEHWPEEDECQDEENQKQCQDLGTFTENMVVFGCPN

| Binder | binding relative to negative control mIgG2 [1] | binding relative to negative control mIgG2 [2] | binding relative to negative control mIgG2 [3] | binding relative to negative control mIgG2 [4] | Hemolytic Assay IC50, Human AP [5] | Hemolytic Assay IC50, Human CP [5] | Hemolytic Assay IC50, Cyno AP [6] | Hemolytic Assay IC50, Cyno CP [6] | Kd [8] | further results |
| --- | --- | --- | --- | --- | --- | --- | --- | --- | --- | --- |
| antibody 3G8 (antibody, V domains shown, Mouse hybridoma antibody) VH: EIQLQQSGAELVKPGASVKISCMASGYSFTGYNMNWVKQSHGKGLEWIGNINPYYDSTSYNQKFKGKATLTVDKSSSTAYMQLNSLTSEDSAVYYCARENYDFVGFAYWGQGTLVTVSA VL: QIVLSQSPAILSASPGEKVTMTCRASSSVSYMHWFQQKPGSSPKPWIYVTSNLASGVPPRFSGSGSGTSYSLTISRVEAEDAATYYCQQWSTNPLTFGAGTKLELK | 0.33 | 0.37 | -0.01 | 0 | 6.8 nM | 10.4 nM | 20.9 nM | 102 nM | – | – |
| antibody 27A8 (antibody, V domains shown) VH: QVQLLQPGAEFVKPGASVKLSCKASGYTFTDYWINWVKQRPGQGLEWIGNIYPGSTSANYNEKFKSKATLTIDTSSITAYMQLSSLTSDDSAVYYCARYGYDSWFAYWGQGTLVTVSA VL: DVVLTQTPLSLPVNIGDQASISCKSTKSLLNSDGFTYLDWFLQKPGQSPHLLIYLVSNRFSGIPDRFSGSGSETDFTLKISRVEAEDLGVYYCFQSNYLPLTFGSGTKLEIK | – | – | – | – | 8.5 nM | 7.6 nM | 9.6 nM | – | – | – |
| antibody 28C3 (antibody, V domains shown, Mouse hybridoma antibody) VH: QVQLQQSGPELVKPGASVKISCKASGYAFNSCWMNWVKQRPGKGLEWIGRIYPGDGDTNYNGKFKGKATLTADKSSTTAYMQLSSLTSEDSAVYFCAREGRNYGYEDYWGQGTTLTVSS VL: DIVLTQSPASLAVSLGQRATISCKASQSVDYDGDSYMNWYQQKPGQPPKLLIYAASDLESGIPARFSGSGSGTDFTLNIHPVEEEDAATYYCQQANEDPRTFGGGTKLEIK | 0.09 | 0.66 | 0.11 | 0.01 | 8 nM | 6.5 nM | 7.8 nM | 3.4 nM | – | – |
| antibody 38F5 (antibody, V domains shown, Mouse hybridoma antibody) VH: EVMLVESGGALVKPGGSLKLSCTASGFTFSNYAMSWVRQTPEKRLEWVAQTISSGGRYTYYPDSVKGRFTISRDNARNTLYLQMSSLRSEDTAMYYCVRRYYGNSYWYFDVWGAGTTVTVSS VL: DIVMTQSPSSLSVSAGEKVTMNCKSSQSLLNSGNQKHYLTWYQQKPGQPPKLLIYGASTRGSGVPDRFTGSGSGTDFTLTISSVQAEDLAVYYCQNDHSYPYTFGGGTKLEIK | 0.66 | 0.83 | 0 | 0.01 | 9.2 nM | 6.7 nM | 12.9 nM | 2.3 nM | – | binding relative to negative control mIgG2 [7]: -0.01 |
| antibody 62B11 (antibody, V domains shown, Mouse hybridoma antibody) VH: EVKLVESGGGLVQPGGSLKLSCAASGFTFSSYTMSWVRQTPEKRLEWVAYISSGGGTTYYPDTVKGRFTVSRDNAKNTLYLQMSSLRSEDTAMYSCARRYYRGSSLWYFDVWGAGTTVTVSS VL: DIVMTQSPSSLTVTAGEKVTMSCKSSQSLFNSGSQKNFLTWYQQRPGQPPKLLIYWASTRESGVPDRFTGSGSGTDFTLTISSVQAEDLAVYYCQNDYSYPLTFGAGTKLELK | 0.76 | 0.83 | -0.03 | -0.02 | 6.6 nM | 4.2 nM | ~11 nM | ~1 nM | – | binding relative to negative control mIgG2 [7]: -0.02 |
| antibody 62F2 (antibody, V domains shown, Mouse hybridoma antibody) VH: DVQLQESGPDLVKPSQSLSLTCTVTGYSITSGYSLHWIRQFPGNKLEWMGYIHYSGSTNYNPSLKSRISITRDTSKNQFFLKLNSVTSEDTATYHCARAWDYLDYWGQGTTLTVSS VL: DIQMTQSPASLSASVGETVTITCRASENIYSQLAWYQQKQGKSPQLLVYDAKTLAEGVPSRFSGSGSDTQFSLKIISLQPEDFGRYYCHHHFGILYTFGGGTKLEMK | 0.61 | 0.7 | -0.04 | 0.01 | 5.7 nM | 5 nM | 8.7 nM | 5.3 nM | – | – |
| antibody 63A3 (antibody, V domains shown, Mouse hybridoma antibody) VH: DVQLQESGPGLVKPSQSLSLTCSVTGYSITSGYYWNWIRQFPGNKLEWMGYIRYDGSNNYNPSLKNRISITRDTSKNQVFLKLNSVTPEDTATYYCARHYGYDGGAFDFWGQGTTLTVSS VL: DIQMTQSPASLSASVGETVTITCRTSENIYNYLVWYQQKQGKSPQLLVYNAKTLEEGVPSRFSGSGSGTQFSLKVNSLQPEDFGSYYCQHHYGTPFTFGSGTKLEIK | 0.83 | 0.95 | -0.02 | 0.01 | 6.5 nM | 4.1 nM | 3.4 nM | 1.6 nM | – | – |
| antibody Hz38G10(G56A) (antibody, human IgG1, kappa, V domains shown, the light chain is the Hz38G10 light chain) VH: QVQLVQSGAEVKKPGASVKVSCKASGYTFTDFYMDWVRQAPGQRLEWMGYIYPHNAGTTYNQQFTGRVTITVDKSASTAYMELSSLRSEDTAVYYCARRGGFDFDYWGQGTLVTVSS VL: DIQMTQSPSSLSASVGDRVTITCKASENVDTYVSWYQQKPGKAPKLLIYGASNRYTGVPSRFSGSGSGTDFTFTISSLQPEDIATYHCGQSHSYPLTFGQGTKLEIKR | – | – | – | – | – | – | – | – | 0.27 nM | Alternative Pathway IC50 (hemolysis), Human C3 [9]: 3.9 nM; Classical Pathway IC50 (hemolysis), Human C3 [9]: 5.4 nM; Alternative Pathway IC50 (hemolysis), Cyno C3 [10]: 4.8 nM; Classical Pathway IC50 (hemolysis), Cyno C3 [10]: 0.6 nM |
| Fab version of Hz38G10 (Fab, V domains shown) VH: QVQLVQSGAEVKKPGASVKVSCKASGYTFTDFYMDWVRQAPGQRLEWMGYIYPHNGGTTYNQQFTGRVTITVDKSASTAYMELSSLRSEDTAVYYCARRGGFDFDYWGQGTLVTVSS VL: DIQMTQSPSSLSASVGDRVTITCKASENVDTYVSWYQQKPGKAPKLLIYGASNRYTGVPSRFSGSGSGTDFTFTISSLQPEDIATYHCGQSHSYPLTFGQGTKLEIK | – | – | – | – | – | – | – | – | – | AP human C3 IC50 (hemolysis) [11]: 16 nM; CP human C3 IC50 (hemolysis) [11]: 17.8 nM |
| antibody Hz38G10(N55D) (antibody, V domains shown, Variant of Hz38G10 with N55D in the heavy chain CDR2, mimicking a fully deamidated molecule) VH: QVQLVQSGAEVKKPGASVKVSCKASGYTFTDFYMDWVRQAPGQRLEWMGYIYPHDGGTTYNQQFTGRVTITVDKSASTAYMELSSLRSEDTAVYYCARRGGFDFDYWGQGTLVTVSS VL: DIQMTQSPSSLSASVGDRVTITCKASENVDTYVSWYQQKPGKAPKLLIYGASNRYTGVPSRFSGSGSGTDFTFTISSLQPEDIATYHCGQSHSYPLTFGQGTKLEIK | – | – | – | – | – | – | – | – | – | binding result [8]: binds |
| antibody Hz38G10(G56T) (antibody, V domains shown, Variant of Hz38G10) VH: QVQLVQSGAEVKKPGASVKVSCKASGYTFTDFYMDWVRQAPGQRLEWMGYIYPHNTGTTYNQQFTGRVTITVDKSASTAYMELSSLRSEDTAVYYCARRGGFDFDYWGQGTLVTVSS VL: DIQMTQSPSSLSASVGDRVTITCKASENVDTYVSWYQQKPGKAPKLLIYGASNRYTGVPSRFSGSGSGTDFTFTISSLQPEDIATYHCGQSHSYPLTFGQGTKLEIK | – | – | – | – | – | – | – | – | 0.23 nM | – |
| antibody Hz38G10(N55E) (antibody, V domains shown, Variant of Hz38G10) VH: QVQLVQSGAEVKKPGASVKVSCKASGYTFTDFYMDWVRQAPGQRLEWMGYIYPHEGGTTYNQQFTGRVTITVDKSASTAYMELSSLRSEDTAVYYCARRGGFDFDYWGQGTLVTVSS VL: DIQMTQSPSSLSASVGDRVTITCKASENVDTYVSWYQQKPGKAPKLLIYGASNRYTGVPSRFSGSGSGTDFTFTISSLQPEDIATYHCGQSHSYPLTFGQGTKLEIK | – | – | – | – | – | – | – | – | 6.2 nM | – |
| antibody Hz38G10(N55Q) (antibody, V domains shown, Variant of Hz38G10) VH: QVQLVQSGAEVKKPGASVKVSCKASGYTFTDFYMDWVRQAPGQRLEWMGYIYPHQGGTTYNQQFTGRVTITVDKSASTAYMELSSLRSEDTAVYYCARRGGFDFDYWGQGTLVTVSS VL: DIQMTQSPSSLSASVGDRVTITCKASENVDTYVSWYQQKPGKAPKLLIYGASNRYTGVPSRFSGSGSGTDFTFTISSLQPEDIATYHCGQSHSYPLTFGQGTKLEIK | – | – | – | – | – | – | – | – | 0.82 nM | – |
